# Measured values from publication PMC4038756 (Theranostics, 2014).
# Key:
# [1] = target: αvβ6 integrin-positive H2009 human NSCLC cells (Homo sapiens, UniProt P06756+P18564); assay: Peptide competition assay: inhibition of H2009.1 peptide phage binding to cells
# [2] = Small animal PET/CT imaging, H2009 tumor bearing mice; assay type: in vivo, NOD/SCID mice; details: NOD/SCID, mouse, iv, total radioactivity
# [3] = system: H2009 (αvβ6^+) xenografts; assay: as above; assay type: in vivo, NOD/SCID mice; details: H2009 tumor bearing mice, n = 3; for Tumor uptake: quantitative PET, mean ± s.d.; for Tumor/Lung: ratio of PET uptakes
# [4] = Small animal PET/CT imaging, H460 tumor bearing mice; assay type: in vivo, NOD/SCID mice; details: NOD/SCID, mouse, iv, total radioactivity
# H460 (αvβ6^-) xenografts = assay: as above; assay type: in vivo, NOD/SCID mice; details: H460 tumor bearing mice, quantitative PET, mean ± s.d., n = 3
# purified αvβ6 = purified αvβ6 (Homo sapiens, UniProt P06756+P18564); assay: Binding assay on purified integrins; details: purified αvβ6, up to 1 µM
# Sequence of purified αvβ6 (P06756 31-992 limits assumed): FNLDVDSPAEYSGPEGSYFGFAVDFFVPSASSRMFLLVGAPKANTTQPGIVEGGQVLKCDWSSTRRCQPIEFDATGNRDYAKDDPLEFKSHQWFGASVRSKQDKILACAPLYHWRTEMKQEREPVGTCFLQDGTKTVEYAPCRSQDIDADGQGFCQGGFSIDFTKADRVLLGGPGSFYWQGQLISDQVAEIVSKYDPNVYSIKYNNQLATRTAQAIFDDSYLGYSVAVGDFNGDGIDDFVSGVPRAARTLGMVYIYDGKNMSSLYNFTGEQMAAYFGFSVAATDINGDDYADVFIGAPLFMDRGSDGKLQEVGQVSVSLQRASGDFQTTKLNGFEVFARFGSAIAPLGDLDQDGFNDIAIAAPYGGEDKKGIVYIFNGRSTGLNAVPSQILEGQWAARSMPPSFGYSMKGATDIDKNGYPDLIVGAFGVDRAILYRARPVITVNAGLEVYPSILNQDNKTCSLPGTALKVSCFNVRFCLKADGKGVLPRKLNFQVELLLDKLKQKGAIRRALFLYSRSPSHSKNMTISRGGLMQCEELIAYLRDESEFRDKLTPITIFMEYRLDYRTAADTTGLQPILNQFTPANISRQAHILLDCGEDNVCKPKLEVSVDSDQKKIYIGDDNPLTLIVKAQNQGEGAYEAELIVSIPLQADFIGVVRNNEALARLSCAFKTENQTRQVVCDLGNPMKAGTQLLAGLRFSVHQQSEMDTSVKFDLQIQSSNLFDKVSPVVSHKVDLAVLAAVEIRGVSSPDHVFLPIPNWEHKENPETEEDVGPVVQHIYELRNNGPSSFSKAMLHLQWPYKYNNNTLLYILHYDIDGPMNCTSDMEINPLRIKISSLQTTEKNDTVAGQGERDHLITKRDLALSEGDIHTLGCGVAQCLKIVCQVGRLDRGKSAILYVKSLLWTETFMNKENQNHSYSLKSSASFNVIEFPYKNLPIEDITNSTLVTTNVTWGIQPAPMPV
# Sequence of purified αvβ6 (P18564 22-707 limits assumed): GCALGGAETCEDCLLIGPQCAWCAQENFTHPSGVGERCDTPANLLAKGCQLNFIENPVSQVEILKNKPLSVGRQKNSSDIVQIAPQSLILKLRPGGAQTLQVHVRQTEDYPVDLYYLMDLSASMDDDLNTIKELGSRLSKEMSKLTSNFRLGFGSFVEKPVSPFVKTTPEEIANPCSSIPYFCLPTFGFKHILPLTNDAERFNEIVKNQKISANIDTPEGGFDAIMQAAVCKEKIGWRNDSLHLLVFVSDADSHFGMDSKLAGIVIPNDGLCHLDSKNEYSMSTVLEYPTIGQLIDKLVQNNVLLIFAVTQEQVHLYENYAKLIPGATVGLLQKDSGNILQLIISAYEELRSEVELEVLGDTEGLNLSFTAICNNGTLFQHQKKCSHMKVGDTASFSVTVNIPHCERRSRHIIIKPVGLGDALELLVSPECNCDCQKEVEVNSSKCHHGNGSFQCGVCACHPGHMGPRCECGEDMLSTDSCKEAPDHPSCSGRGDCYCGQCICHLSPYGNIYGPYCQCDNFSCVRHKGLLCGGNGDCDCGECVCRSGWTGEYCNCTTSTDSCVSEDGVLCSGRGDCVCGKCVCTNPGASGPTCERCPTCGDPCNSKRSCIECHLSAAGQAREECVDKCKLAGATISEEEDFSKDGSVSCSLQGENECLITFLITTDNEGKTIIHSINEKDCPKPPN
# Sequence of αvβ6 integrin-positive H2009 human NSCLC cells (P18564 22-788): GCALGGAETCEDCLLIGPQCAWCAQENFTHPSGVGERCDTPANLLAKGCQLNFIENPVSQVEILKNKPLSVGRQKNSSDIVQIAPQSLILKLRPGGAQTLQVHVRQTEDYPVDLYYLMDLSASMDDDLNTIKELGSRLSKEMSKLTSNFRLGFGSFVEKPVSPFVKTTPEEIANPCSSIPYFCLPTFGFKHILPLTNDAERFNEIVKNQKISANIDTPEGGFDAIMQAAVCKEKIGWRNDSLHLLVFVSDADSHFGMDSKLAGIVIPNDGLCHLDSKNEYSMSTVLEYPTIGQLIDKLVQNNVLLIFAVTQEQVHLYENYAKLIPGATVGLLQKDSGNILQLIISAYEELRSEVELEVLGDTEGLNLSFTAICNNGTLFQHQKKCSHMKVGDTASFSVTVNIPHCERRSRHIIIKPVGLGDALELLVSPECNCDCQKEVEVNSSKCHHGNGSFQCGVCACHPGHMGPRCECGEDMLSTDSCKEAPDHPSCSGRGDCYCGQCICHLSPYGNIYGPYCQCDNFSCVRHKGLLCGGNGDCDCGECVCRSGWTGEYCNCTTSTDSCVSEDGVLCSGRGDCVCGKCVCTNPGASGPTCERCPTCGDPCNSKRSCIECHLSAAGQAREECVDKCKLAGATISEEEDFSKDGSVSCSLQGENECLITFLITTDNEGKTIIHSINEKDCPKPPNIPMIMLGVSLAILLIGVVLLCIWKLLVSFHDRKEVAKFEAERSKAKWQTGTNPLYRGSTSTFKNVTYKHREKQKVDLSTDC
# Sequence of αvβ6 integrin-positive H2009 human NSCLC cells (P06756 891-1048): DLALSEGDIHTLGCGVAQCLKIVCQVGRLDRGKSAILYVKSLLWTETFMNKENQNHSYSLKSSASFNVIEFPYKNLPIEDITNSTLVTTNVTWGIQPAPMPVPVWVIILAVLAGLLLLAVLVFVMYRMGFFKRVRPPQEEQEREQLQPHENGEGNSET
# Sequence of αvβ6 integrin-positive H2009 human NSCLC cells (P06756 31-889): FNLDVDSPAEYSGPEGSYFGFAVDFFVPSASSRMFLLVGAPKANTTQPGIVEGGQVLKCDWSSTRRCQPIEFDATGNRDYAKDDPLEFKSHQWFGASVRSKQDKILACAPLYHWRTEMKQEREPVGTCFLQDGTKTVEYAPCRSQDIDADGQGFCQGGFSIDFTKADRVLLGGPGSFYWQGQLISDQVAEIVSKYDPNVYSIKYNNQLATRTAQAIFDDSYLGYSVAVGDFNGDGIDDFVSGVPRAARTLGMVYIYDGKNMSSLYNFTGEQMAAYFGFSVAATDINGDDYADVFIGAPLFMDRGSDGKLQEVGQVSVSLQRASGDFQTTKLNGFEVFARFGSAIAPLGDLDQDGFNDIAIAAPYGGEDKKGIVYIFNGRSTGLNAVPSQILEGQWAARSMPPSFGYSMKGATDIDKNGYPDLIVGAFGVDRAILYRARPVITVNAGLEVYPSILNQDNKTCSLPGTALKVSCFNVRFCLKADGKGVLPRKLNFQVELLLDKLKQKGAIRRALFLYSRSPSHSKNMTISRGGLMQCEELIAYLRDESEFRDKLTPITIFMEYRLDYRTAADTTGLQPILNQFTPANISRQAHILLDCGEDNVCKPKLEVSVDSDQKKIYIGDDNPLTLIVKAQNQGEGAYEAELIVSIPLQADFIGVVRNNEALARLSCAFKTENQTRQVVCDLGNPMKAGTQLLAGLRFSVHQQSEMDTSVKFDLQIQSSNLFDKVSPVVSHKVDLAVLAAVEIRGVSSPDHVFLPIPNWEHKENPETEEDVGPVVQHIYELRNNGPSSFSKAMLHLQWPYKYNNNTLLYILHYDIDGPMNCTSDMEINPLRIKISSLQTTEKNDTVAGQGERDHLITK
compound,measurement,setting,value
CC(C)C[C@H](NC(=O)[C@H](CCC(N)=O)NC(=O)[C@H](CCCNC(=N)N)NC(=O)[C@H](CC(C)C)NC(=O)[C@@H](NC(=O)[C@H](C)NC(=O)[C@H](CC(C)C)NC(=O)[C@H](CC(=O)O)NC(=O)CNC(=O)[C@@H](N)CCCNC(=N)N)[C@@H](C)O)C(=O)NCCOCCOCCOCCOCCOCCOCCOCCOCCOCCOCCOCCOCCC(=O)N[C@@H](CSC1CC(=O)N(CCNC(=O)CCC(C(=O)O)N2CCCN3CCN(CCCN(CC(=O)O)CC3)CC2)C1=O)C(N)=O (some centres unmarked) [H2-M10],IC50,[1],4.5 nM
"CC(C)C[C@H](NC(=O)[C@H](CCC(N)=O)NC(=O)[C@H](CCCNC(=N)N)NC(=O)[C@H](CC(C)C)NC(=O)[C@@H](NC(=O)[C@H](C)NC(=O)[C@H](CC(C)C)NC(=O)[C@H](CC(=O)O)NC(=O)CNC(=O)[C@@H](N)CCCNC(=N)N)[C@@H](C)O)C(=O)NCCOCCOCCOCCOCCOCCOCCOCCOCCOCCOCCOCCOCCC(=O)N[C@@H](CSC1CC(=O)N(CCNC(=O)CCC(C(=O)O)N2CCCN3CCN(CCCN(CC(=O)O)CC3)CC2)C1=O)C(N)=O (some centres unmarked) [^64Cu-M10, metal not drawn]",tissue uptake at 1 h,[2]; heart,1.02 ± 0.07 %ID/g
same,tissue uptake at 4 h,[2]; heart,0.42 ± 0.06 %ID/g
same,tissue uptake at 24 h,[2]; heart,0.16 ± 0.05 %ID/g
same,tissue uptake at 1 h,[2]; kidney,6.83 ± 0.35 %ID/g
same,tissue uptake at 4 h,[2]; kidney,6.23 ± 0.32 %ID/g
same,tissue uptake at 24 h,[2]; kidney,3.5 ± 0.36 %ID/g
same,tissue uptake at 1 h,[2]; liver,2.03 ± 0.23 %ID/g
same,tissue uptake at 4 h,[2]; liver,1.53 ± 0.21 %ID/g
same,tissue uptake at 24 h,[2]; liver,1.3 ± 0.1 %ID/g
same,tissue uptake at 1 h,[2]; lung,0.66 ± 0.08 %ID/g
same,tissue uptake at 4 h,[2]; lung,0.33 ± 0.11 %ID/g
same,tissue uptake at 24 h,[2]; lung,0.15 ± 0.04 %ID/g
same,tissue uptake at 1 h,[2]; muscle,0.3 ± 0.02 %ID/g
same,tissue uptake at 4 h,[2]; muscle,0.12 ± 0.02 %ID/g
same,tissue uptake at 24 h,[2]; muscle,0.14 ± 0.02 %ID/g
same,Tumor uptake,[3]; 1 h p.i.,0.55 ± 0.17 %ID/g
same,Tumor/Lung,[3]; 1 h p.i.,0.83 ± 0.18
same,Tumor uptake,[3]; 4 h p.i.,0.33 ± 0.11 %ID/g
same,Tumor/Lung,[3]; 4 h p.i.,1.0 ± 0.15
same,Tumor uptake,[3]; 24 h p.i.,0.28 ± 0.11 %ID/g
same,Tumor/Lung,[3]; 24 h p.i.,1.86 ± 0.11
same,tissue uptake at 1 h,[4]; heart,1.02 ± 0.17 %ID/g
same,tissue uptake at 4 h,[4]; heart,0.65 ± 0.12 %ID/g
same,tissue uptake at 24 h,[4]; heart,0.33 ± 0.03 %ID/g
same,tissue uptake at 1 h,[4]; kidney,14 ± 2.4 %ID/g
same,tissue uptake at 4 h,[4]; kidney,12.5 ± 2.33 %ID/g
same,tissue uptake at 24 h,[4]; kidney,5.97 ± 1.01 %ID/g
same,tissue uptake at 1 h,[4]; liver,0.93 ± 0.12 %ID/g
same,tissue uptake at 4 h,[4]; liver,0.77 ± 0.06 %ID/g
same,tissue uptake at 24 h,[4]; liver,0.43 ± 0.05 %ID/g
same,tissue uptake at 1 h,[4]; lung,0.55 ± 0.09 %ID/g
same,tissue uptake at 4 h,[4]; lung,0.34 ± 0.07 %ID/g
same,tissue uptake at 24 h,[4]; lung,0.18 ± 0.02 %ID/g
same,tissue uptake at 1 h,[4]; muscle,0.15 ± 0.07 %ID/g
same,tissue uptake at 4 h,[4]; muscle,0.11 ± 0.04 %ID/g
same,tissue uptake at 24 h,[4]; muscle,0.1 ± 0.03 %ID/g
same,Tumor uptake,H460 (αvβ6^-) xenografts; 1 h p.i.,0.34 ± 0.05 %ID/g
same,Tumor uptake,H460 (αvβ6^-) xenografts; 4 h p.i.,0.24 ± 0.01 %ID/g
same,Tumor uptake,H460 (αvβ6^-) xenografts; 24 h p.i.,0.19 ± 0.01 %ID/g
N=C(N)NCCC[C@@H]1NC(=O)[C@H](CCCCN)NC(=O)[C@@H](Cc2ccc(O)cc2)NC(=O)[C@H](CC(=O)O)NC(=O)CNC1=O [cRGDyK],binding to αvβ6,purified αvβ6,no detectable binding
